Article PMC10587035 (Discover Mental Health, 2023)

Columns and labels:
[1] = molecular target: green-fluorescence protein (GFP)-labeled human OT-R in HEK293 cells (human) (UniProt P30559)
[2] = molecular target: human oxytocin receptor, stably transfected in HEK293 cells (human) (UniProt P30559)
[3] = molecular target: T1, human OT-R (Homo sapiens, UniProt P30559); experiment: In vitro oxytocin receptor activation assay (intracellular Ca2+ mobilization, Fluo-4); assay type: cell-based; conditions: HEK293 cells expressing human OT-R; ATP 10^-4 M as positive control; IgG applied without OT
T1 construct: expressed in transfected cells; host or cells: HEK293, stably transfected
T1 sequence (P30559 1-389): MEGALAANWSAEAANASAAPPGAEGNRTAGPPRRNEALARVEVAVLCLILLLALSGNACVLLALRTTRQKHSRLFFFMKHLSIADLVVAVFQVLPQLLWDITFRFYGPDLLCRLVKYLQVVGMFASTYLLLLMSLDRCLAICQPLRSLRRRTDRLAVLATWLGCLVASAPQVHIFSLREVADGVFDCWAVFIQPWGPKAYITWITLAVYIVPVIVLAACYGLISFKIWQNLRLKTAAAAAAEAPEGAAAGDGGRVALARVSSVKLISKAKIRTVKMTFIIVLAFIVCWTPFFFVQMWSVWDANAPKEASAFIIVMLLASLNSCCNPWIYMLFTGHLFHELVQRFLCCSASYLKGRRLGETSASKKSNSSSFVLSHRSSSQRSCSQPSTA
Protocol: Cells were grown on DMEM medium (Gibco, Thermo Fisher Scientific) with 10% FBS and 0.6% Penicillin/Streptomycin (Merck). To prepare assay plates, cell line was treated with 0.25% trypsin-EDTA (Gibco), cell pellet was resuspended in medium and filed in a flat clear bottom black 96-microwell plate (Greiner Bio-One, Les Ulis, France) at a rate of 50000 cells per well, which was coated during 1 h at 37°C with 100µg/mL of Poly-L-Lysin (Merck) and 1 h with 100µg/mL of Collagen I (Institut de Biotechnologie Jacques Boy, Reims, France). The microplate was incubated 24 hours at 37°C with 5% of CO2.
Briefly, confluent cells were incubated 45 min at 37°C with 2 µM Fluo-4 acetoxymethyl ester (AM) calcium dye (Life Technologies, Villebon-sur-Yvette, France) in complete HBSS, washed twice and incubated in 200 µL of the same complete medium at 37°C for 20 min. Fluorescence was recorded using a Flexstation III fluorescence microplate reader system (Molecular Devices, Saint-Grégoire, France) during 180 s with an excitation wavelength of 485 nm, an emission wavelength of 525 nm and a cutoff filter of 515 nm. […]
Ca^2+ releasing kinetics were determined, as well as area under curve, the maximal fluorescence peak and the time for which this maximum is reached. Fluorescence data were calculated as mean +/- SEM.

Sequence of oxytocin (P01178 whole entry, looked up): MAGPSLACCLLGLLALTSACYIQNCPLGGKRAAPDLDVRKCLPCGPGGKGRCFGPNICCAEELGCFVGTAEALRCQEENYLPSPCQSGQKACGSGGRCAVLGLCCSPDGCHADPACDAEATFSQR

Row | Molecule | half-time internalization rate of GFP-labeled OT-R (membrane/cytoplasmic fluorescence, exponential decay model), OT alone [1] [min] | half-time internalization rate of GFP-labeled OT-R (membrane/cytoplasmic fluorescence, exponential decay model), OT in immune complex with plasma IgG of aggressors [1] [min] | half-time internalization rate of GFP-labeled OT-R (membrane/cytoplasmic fluorescence, exponential decay model), OT in immune complex with plasma IgG of controls [1] [min] | EC50 of Ca2+ release in OT-R expressing cells, OT dose-response with OT preincubated with plasma IgG of aggressors (OT/IgG IC, fixed IgG 840 nM) [2] [nM] | EC50 of Ca2+ release in OT-R expressing cells, OT dose-response with OT preincubated with plasma IgG of controls (OT/IgG IC, fixed IgG 840 nM) [2] [nM] | intracellular Ca2+ mobilization in HEK293 cells stably transfected with human OT-R, OT alone at 10^-7 M (fold over basal levels) [2] | intracellular Ca2+ mobilization (result in words) [3]
1 | oxytocin (from UniProt P01178 20-28) (peptide) | 16.7 | 23.3 | 6.4 | 6.1 | 3.1 | 3.5 | 
2 | Nc1ncnc2c1ncn2[C@@H]1O[C@H](COP(=O)(O)OP(=O)(O)OP(=O)(O)O)[C@@H](O)[C@H]1O [ATP, adenosine triphosphate] |  |  |  |  |  |  | mild increase
